We go through four substances from US20250108114A1.

Holding throughout (assay): cell-based or functional assay
Test [1] has as its target BCMA on H929 myeloma cells (human) (UniProt Q02223).
The target of test [2] is truncated BCMA (amino acid 1 to 98) on SKOV3 cells (human) (UniProt Q02223).
The target in test [3] is CD19 on GFP/Luc+ Raji cells (human) (UniProt P15391).
Test [4] concerns the target truncated CD19 (amino acid 1 to 342) on SKOV3 cells (human) (UniProt P15391).

Chain of BCMA on H929 myeloma cells (human) (Q02223 whole entry, the tested form may be a part): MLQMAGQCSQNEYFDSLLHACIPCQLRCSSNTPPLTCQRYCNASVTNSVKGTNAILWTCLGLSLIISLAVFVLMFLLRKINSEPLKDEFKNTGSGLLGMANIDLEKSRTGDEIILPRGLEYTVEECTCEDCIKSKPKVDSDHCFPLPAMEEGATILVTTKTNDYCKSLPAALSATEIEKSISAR
Chain of CD19 on GFP/Luc+ Raji cells (human) (P15391 20-556): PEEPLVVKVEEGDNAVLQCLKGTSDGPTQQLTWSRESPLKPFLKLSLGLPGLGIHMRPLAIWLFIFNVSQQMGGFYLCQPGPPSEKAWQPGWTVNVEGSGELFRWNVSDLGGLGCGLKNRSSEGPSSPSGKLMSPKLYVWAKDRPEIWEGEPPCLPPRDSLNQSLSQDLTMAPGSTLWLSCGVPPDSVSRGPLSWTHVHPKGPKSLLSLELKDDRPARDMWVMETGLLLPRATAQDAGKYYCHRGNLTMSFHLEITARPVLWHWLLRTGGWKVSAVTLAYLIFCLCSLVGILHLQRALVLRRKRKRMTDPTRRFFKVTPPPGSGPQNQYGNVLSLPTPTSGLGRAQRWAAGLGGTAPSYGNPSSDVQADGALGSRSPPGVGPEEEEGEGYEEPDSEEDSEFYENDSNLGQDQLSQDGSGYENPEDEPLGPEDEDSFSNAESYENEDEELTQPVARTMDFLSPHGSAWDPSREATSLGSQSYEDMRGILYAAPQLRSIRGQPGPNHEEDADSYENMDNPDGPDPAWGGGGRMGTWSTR
Chain of truncated BCMA (amino acid 1 to 98) on SKOV3 cells (human) (Q02223 1-98 limits assumed): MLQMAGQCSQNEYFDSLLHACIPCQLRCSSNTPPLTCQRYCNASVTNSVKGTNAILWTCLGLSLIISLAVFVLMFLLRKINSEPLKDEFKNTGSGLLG
Chain of truncated CD19 (amino acid 1 to 342) on SKOV3 cells (human) (P15391 20-342 limits assumed, form in doubt): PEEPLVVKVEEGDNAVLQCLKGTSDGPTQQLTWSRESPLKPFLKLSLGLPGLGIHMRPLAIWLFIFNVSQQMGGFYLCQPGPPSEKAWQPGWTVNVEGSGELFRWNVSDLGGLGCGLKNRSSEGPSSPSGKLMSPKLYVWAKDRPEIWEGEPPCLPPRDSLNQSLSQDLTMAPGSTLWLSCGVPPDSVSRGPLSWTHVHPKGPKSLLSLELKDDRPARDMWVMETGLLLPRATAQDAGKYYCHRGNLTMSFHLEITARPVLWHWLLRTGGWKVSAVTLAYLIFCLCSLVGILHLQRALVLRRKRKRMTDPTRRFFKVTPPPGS

For the substance “anti-BCMA chimeric antigen receptor of Comparative Example 3 (J6M0 scFv, hinge domain of CD8, transmembrane domain of CD8, 4-1BB, signal transduction domain of CD3ζ), on CAR-T cells of Comparative Example 3C (from UniProt P01732 183-206; Q07011 214-255; P20963 52-164)”, the cytotoxicity, flow cytometry with counting beads, E:T 0.1:1, 24 hours in test [1] came to 74.8%.
In test [1], “anti-BCMA-NKp30 chimeric antigen receptor of Example 3 (J6M0 scFv, hinge domain of CD28, NKp30 without immunoglobulin-like domain), on CAR-T cells of Example 3C (from UniProt O14931 129-201; P30273 19-86)” yielded a cytotoxicity, flow cytometry with counting beads, E:T 0.1:1, 24 hours of 73.5%; a cytotoxicity, flow cytometry with counting beads, E:T 0.3:1 and 1:1, 24 hours of 80 to 85%. In test [2], this substance showed a cytotoxicity, real-time cytotoxicity assay (xCELLigence), E:T 0.3:1 and 0.1:1, after 36 hours of co-culture of 100%.
Regarding “anti-CD19-NKp30 chimeric antigen receptor of Example 1-4 (FMC63 scFv, hinge domain of IgG4, NKp30 without immunoglobulin-like domain), on CAR-T cells of Example 1-4C (from UniProt O14931 129-201; P30273 19-86)”, the Specific cell lysis ratio (at E:T = 3:1), luciferase killing assay in test [3] was 51%.
As to “anti-CD19-NKp30 chimeric antigen receptor of Example 1-5 (FMC63 scFv, (EAAAK)3 hinge, NKp30 without immunoglobulin-like domain), on CAR-T cells of Example 1-5C (from UniProt O14931 129-201; P30273 19-86)”, the Specific cell lysis ratio (at E:T = 3:1), luciferase killing assay in test [3] amounted to 83.6%. In test [4], this substance showed a cytotoxicity, real-time cytotoxicity assay (xCELLigence), E:T 0.1:1 (fold against Comparative Example 1C) above 3.
